Molecular target: human E-cadherin on human embryonic stem cells (hESCs; CyT203) (human) (UniProt P12830)
Test: cell-based or functional assay

Sequence of UniProt P12830 (P12830 155-882 limits assumed): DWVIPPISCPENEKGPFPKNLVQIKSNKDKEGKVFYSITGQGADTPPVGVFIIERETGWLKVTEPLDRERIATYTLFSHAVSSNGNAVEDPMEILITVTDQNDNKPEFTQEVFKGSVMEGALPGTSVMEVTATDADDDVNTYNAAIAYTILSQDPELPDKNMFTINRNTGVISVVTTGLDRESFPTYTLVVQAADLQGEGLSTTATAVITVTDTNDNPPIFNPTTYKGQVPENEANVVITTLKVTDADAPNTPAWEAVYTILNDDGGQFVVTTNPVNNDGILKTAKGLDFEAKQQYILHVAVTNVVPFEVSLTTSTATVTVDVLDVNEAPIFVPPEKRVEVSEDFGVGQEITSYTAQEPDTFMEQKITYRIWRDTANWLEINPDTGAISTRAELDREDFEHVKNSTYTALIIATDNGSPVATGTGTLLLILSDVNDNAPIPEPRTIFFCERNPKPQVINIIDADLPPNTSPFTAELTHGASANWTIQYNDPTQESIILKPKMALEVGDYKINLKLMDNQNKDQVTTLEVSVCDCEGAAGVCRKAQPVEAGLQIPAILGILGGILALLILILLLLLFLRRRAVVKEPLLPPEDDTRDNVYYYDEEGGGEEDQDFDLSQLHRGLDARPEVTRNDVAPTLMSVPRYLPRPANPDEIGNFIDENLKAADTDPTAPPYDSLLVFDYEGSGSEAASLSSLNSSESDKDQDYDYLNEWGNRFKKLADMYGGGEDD

## mouse anti-human E-cadherin antibody (Zymed Cat. No. 13-1700)
  percentage of CXCR4 positive cells (flow cytometry after 3 days of differentiation to definitive endoderm; antibody at 5 µg/mL on day 1): 93%
